The record followed here is IntAct's records for PubMed 25910212.

B1: SH2 domain-containing protein 1A (Homo sapiens), O60880 (parent)
chain: MDAVAVYHGKISRETGEKLLLATGLDGSYLLRDSESVPGVYCLCVLYHGYIYTYRVSQTETGSWSAETAPGVHKRYFRKIKNLISAFQKPDQGIVIPLQYPVEKKSSARSTQGTTGIREDPDVCLKAP
B2: Iodotyrosine deiodinase 1 (Homo sapiens), Q6PHW0 (parent)
chain: MYFLTPILVAILCILVVWIFKNADRSMEKKKGEPRTRAEARPWVDEDLKDSSDLHQAEEDADEWQESEENVEHIPFSHNHYPEKEMVKRSQEFYELLNKRRSVRFISNEQVPMEVIDNVIRTAGTAPSGAHTEPWTFVVVKDPDVKHKIRKIIEEEEEINYMKRMGHRWVTDLKKLRTNWIKEYLDTAPILILIFKQVHGFAANGKKKVHYYNEISVSIACGILLAALQNAGLVTVTTTPLNCGPRLRVLLGRPAHEKLLMLLPVGYPSKEATVPDLKRKPLDQIMVTV
partner: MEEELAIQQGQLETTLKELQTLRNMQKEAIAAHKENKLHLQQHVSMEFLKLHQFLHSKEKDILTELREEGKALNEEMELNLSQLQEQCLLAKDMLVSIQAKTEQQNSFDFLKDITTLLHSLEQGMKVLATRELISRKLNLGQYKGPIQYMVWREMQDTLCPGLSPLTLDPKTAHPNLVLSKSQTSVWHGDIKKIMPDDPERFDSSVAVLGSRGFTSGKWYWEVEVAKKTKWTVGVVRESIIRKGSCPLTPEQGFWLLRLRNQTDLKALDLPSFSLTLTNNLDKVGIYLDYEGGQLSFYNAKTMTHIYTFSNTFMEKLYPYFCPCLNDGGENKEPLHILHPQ
B3: Neutrophil cytosol factor 1 (Homo sapiens), P14598 (parent)
chain: MGDTFIRHIALLGFEKRFVPSQHYVYMFLVKWQDLSEKVVYRRFTEIYEFHKTLKEMFPIEAGAINPENRIIPHLPAPKWFDGQRAAENRQGTLTEYCSTLMSLPTKISRCPHLLDFFKVRPDDLKLPTDNQTKKPETYLMPKDGKSTATDITGPIILQTYRAIANYEKTSGSEMALSTGDVVEVVEKSESGWWFCQMKAKRGWIPASFLEPLDSPDETEDPEPNYAGEPYVAIKAYTAVEGDEVSLLEGEAVEVIHKLLDGWWVIRKDDVTGYFPSMYLQKSGQDVSQAQRQIKRGAPPRRSSIRNAHSIHQRSRKRLSQDAYRRNSVRFLQQRRRQARPGPQSPGSPLEEERQTQRSKPQPAVPPRPSADLILNRCSESTKRKLASAV
B4: U4/U6 small nuclear ribonucleoprotein Prp31 (Homo sapiens), Q8WWY3 (parent)
chain: MSLADELLADLEEAAEEEEGGSYGEEEEEPAIEDVQEETQLDLSGDSVKTIAKLWDSKMFAEIMMKIEEYISKQAKASEVMGPVEAAPEYRVIVDANNLTVEIENELNIIHKFIRDKYSKRFPELESLVPNALDYIRTVKELGNSLDKCKNNENLQQILTNATIMVVSVTASTTQGQQLSEEELERLEEACDMALELNASKHRIYEYVESRMSFIAPNLSIIIGASTAAKIMGVAGGLTNLSKMPACNIMLLGAQRKTLSGFSSTSVLPHTGYIYHSDIVQSLPPDLRRKAARLVAAKCTLAARVDSFHESTEGKVGYELKDEIERKFDKWQEPPPVKQVKPLPAPLDGQRKKRGGRRYRKMKERLGLTEIRKQANRMSFGEIEEDAYQEDLGFSLGHLGKSGSGRVRQTQVNEATKARISKTLQRTLQKQSVVYGGKSTIRDRSSGTASSVAFTPLQGLEIVNPQAAEKKVAEANQKYFSSMAEFLKVKGEKSGLMST
partner: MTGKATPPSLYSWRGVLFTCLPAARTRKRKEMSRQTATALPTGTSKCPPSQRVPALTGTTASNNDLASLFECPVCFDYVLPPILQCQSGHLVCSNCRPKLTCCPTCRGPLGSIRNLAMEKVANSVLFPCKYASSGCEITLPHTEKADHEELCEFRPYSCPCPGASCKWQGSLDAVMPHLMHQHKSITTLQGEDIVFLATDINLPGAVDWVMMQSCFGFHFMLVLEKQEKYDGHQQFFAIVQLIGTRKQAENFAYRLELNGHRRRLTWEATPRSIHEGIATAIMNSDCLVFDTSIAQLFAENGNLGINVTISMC
B5: Casein kinase I isoform epsilon (Homo sapiens), P49674 (parent)
chain: MELRVGNKYRLGRKIGSGSFGDIYLGANIASGEEVAIKLECVKTKHPQLHIESKFYKMMQGGVGIPSIKWCGAEGDYNVMVMELLGPSLEDLFNFCSRKFSLKTVLLLADQMISRIEYIHSKNFIHRDVKPDNFLMGLGKKGNLVYIIDFGLAKKYRDARTHQHIPYRENKNLTGTARYASINTHLGIEQSRRDDLESLGYVLMYFNLGSLPWQGLKAATKRQKYERISEKKMSTPIEVLCKGYPSEFSTYLNFCRSLRFDDKPDYSYLRQLFRNLFHRQGFSYDYVFDWNMLKFGAARNPEDVDRERREHEREERMGQLRGSATRALPPGPPTGATANRLRSAAEPVASTPASRIQPAGNTSPRAISRVDRERKVSMRLHRGAPANVSSSDLTGRQEVSRIPASQTSVPFDHLGK
partner: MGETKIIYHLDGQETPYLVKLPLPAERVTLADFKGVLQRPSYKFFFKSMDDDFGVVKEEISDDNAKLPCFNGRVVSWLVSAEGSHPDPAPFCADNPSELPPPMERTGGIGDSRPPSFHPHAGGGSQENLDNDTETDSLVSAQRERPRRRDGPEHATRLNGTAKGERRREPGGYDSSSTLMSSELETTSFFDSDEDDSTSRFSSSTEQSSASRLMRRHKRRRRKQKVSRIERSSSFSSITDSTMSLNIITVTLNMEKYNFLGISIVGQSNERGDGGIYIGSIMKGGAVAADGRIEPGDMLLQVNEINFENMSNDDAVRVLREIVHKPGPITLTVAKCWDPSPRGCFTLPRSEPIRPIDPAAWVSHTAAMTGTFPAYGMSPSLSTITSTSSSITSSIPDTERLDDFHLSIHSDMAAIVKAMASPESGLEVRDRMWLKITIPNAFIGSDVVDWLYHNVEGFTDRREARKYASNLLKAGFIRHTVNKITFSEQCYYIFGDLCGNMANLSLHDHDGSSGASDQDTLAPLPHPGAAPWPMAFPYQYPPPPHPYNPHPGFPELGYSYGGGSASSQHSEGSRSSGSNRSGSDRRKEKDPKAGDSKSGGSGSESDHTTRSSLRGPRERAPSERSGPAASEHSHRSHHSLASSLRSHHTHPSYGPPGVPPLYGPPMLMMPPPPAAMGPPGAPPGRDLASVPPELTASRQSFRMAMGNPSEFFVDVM
B6: Nuclear receptor subfamily 0 group B member 1 (Homo sapiens), P51843 (parent)
chain: MAGENHQWQGSILYNMLMSAKQTRAAPEAPETRLVDQCWGCSCGDEPGVGREGLLGGRNVALLYRCCFCGKDHPRQGSILYSMLTSAKQTYAAPKAPEATLGPCWGCSCGSDPGVGRAGLPGGRPVALLYRCCFCGEDHPRQGSILYSLLTSSKQTHVAPAAPEARPGGAWWDRSYFAQRPGGKEALPGGRATALLYRCCFCGEDHPQQGSTLYCVPTSTNQAQAAPEERPRAPWWDTSSGALRPVALKSPQVVCEAASAGLLKTLRFVKYLPCFQVLPLDQQLVLVRNCWASLLMLELAQDRLQFETVEVSEPSMLQKILTTRRRETGGNEPLPVPTLQHHLAPPAEARKVPSASQVQAIKCFLSKCWSLNISTKEYAYLKGTVLFNPDVPGLQCVKYIQGLQWGTQQILSEHTRMTHQGPHDRFIELNSTLFLLRFINANVIAELFFRPIIGTVSMDDMMLEMLCTKI
B7: PiggyBac transposable element-derived protein 1 (Homo sapiens), Q96JS3 (parent)
chain: MYEALPGPAPENEDGLVKVKEEDPTWEQVCNSQEGSSHTQEICRLRFRHFCYQEAHGPQEALAQLRELCHQWLRPEMHTKEQIMELLVLEQFLTILPKELQPCVKTYPLESGEEAVTVLENLETGSGDTGQQASVYIQGQDMHPMVAEYQGVSLECQSLQLLPGITTLKCEPPQRPQGNPQEVSGPVPHGSAHLQEKNPRDKAVVPVFNPVRSQTLVKTEEETAQAVAAEKWSHLSLTRRNLCGNSAQETVMSLSPMTEEIVTKDRLFKAKQETSEEMEQSGEASGKPNRECAPQIPCSTPIATERTVAHLNTLKDRHPGDLWARMHISSLEYAAGDITRKGRKKDKARVSELLQGLSFSGDSDVEKDNEPEIQPAQKKLKVSCFPEKSWTKRDIKPNFPSWSALDSGLLNLKSEKLNPVELFELFFDDETFNLIVNETNNYASQKNVSLEVTVQEMRCVFGVLLLSGFMRHPRREMYWEVSDTDQNLVRDAIRRDRFELIFSNLHFADNGHLDQKDKFTKLRPLIKQMNKNFLLYAPLEEYYCFDKSMCECFDSDQFLNGKPIRIGYKIWCGTTTQGYLVWFEPYQEESTMKVDEDPDLGLGGNLVMNFADVLLERGQYPYHLCFDSFFTSVKLLSALKKKGVRATGTIRENRTEKCPLMNVEHMKKMKRGYFDFRIEENNEIILCRWYGDGIISLCSNAVGIEPVNEVSCCDADNEEIPQISQPSIVKVYDECKEGVAKMDQIISKYRVRIRSKKWYSILVSYMIDVAMNNAWQLHRACNPGASLDPLDFRRFVAHFYLEHNAHLSD
partner: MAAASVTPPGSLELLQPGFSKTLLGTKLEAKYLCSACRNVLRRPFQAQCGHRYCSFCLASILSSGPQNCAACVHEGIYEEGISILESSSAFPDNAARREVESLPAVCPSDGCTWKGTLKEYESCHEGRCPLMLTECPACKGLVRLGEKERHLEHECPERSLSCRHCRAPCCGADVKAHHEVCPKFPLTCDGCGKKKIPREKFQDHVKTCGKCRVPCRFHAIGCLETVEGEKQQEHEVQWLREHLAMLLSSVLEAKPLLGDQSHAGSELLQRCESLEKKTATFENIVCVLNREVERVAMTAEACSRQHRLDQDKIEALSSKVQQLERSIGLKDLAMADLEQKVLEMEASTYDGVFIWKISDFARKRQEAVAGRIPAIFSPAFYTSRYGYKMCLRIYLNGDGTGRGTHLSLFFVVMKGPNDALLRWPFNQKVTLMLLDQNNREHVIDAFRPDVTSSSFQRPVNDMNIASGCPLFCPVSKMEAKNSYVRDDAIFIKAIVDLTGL
B8: Carbonic anhydrase-related protein (Homo sapiens), P35219 (parent)
chain: MADLSFIEDTVAFPEKEEDEEEEEEGVEWGYEEGVEWGLVFPDANGEYQSPINLNSREARYDPSLLDVRLSPNYVVCRDCEVTNDGHTIQVILKSKSVLSGGPLPQGHEFELYEVRFHWGRENQRGSEHTVNFKAFPMELHLIHWNSTLFGSIDEAVGKPHGIAIIALFVQIGKEHVGLKAVTEILQDIQYKGKSKTIPCFNPNTLLPDPLLRDYWVYEGSLTIPPCSEGVTWILFRYPLTISQLQIEEFRRLRTHVKGAELVEGCDGILGDNFRPTQPLSDRVIRAAFQ
partner: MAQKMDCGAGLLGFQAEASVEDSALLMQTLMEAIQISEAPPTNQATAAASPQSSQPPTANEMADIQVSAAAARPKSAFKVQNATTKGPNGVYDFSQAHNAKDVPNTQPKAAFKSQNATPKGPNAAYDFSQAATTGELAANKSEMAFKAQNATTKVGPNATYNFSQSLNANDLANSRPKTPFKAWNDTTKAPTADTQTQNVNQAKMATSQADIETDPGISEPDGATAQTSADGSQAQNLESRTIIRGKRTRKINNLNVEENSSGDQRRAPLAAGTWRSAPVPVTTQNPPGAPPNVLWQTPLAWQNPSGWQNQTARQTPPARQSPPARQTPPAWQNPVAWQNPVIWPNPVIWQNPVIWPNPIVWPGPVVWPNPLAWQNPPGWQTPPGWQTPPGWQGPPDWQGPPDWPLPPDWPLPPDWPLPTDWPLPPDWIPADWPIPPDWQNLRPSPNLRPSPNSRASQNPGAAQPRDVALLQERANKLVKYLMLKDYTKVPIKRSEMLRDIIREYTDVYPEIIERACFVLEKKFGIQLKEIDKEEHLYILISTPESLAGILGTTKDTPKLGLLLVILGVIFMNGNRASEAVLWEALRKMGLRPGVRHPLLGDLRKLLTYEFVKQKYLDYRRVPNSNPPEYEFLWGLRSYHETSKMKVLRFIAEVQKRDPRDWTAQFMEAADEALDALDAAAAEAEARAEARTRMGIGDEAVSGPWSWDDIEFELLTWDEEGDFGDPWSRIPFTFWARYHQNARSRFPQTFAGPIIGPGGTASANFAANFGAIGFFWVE

In one test the parent is B1. The following applies: with TNK2, Q07912-2.
Chain of TNK2, Q07912-2 (Q07912 other isoform, or with tags, fused parts or gaps): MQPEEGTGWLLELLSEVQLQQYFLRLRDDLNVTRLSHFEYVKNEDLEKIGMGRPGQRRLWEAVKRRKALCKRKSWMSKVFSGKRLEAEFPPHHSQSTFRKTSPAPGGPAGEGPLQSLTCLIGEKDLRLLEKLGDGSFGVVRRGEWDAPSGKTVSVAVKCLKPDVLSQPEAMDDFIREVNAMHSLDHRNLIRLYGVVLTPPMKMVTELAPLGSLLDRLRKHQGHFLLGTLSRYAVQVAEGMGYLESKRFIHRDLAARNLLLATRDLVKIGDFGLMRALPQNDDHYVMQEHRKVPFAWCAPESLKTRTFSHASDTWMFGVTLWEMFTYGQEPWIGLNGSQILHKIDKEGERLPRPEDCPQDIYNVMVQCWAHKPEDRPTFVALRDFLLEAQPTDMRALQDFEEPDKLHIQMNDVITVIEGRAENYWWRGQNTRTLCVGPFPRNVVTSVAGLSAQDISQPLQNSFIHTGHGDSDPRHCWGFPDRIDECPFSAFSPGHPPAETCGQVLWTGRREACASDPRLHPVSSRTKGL
Regarding G93D, the “effect of a mutation on the interaction” value is recorded as “with no effect”.

In a further test the parent is B2. The following applies: with TRIM69, Q86WT6-2.
As to A220T, the “effect of a mutation on the interaction” value is reported as “with no effect”. Still for that read-out and setting: the same measure for R101W: “with no effect”. Same read-out and setting: the same measure for I116T: “with no effect”.

The next test covers variants of B3. As to conditions: with hsp7c_human HSPA8, P11142.
Chain of hsp7c_human HSPA8, P11142 (P11142 whole entry, looked up): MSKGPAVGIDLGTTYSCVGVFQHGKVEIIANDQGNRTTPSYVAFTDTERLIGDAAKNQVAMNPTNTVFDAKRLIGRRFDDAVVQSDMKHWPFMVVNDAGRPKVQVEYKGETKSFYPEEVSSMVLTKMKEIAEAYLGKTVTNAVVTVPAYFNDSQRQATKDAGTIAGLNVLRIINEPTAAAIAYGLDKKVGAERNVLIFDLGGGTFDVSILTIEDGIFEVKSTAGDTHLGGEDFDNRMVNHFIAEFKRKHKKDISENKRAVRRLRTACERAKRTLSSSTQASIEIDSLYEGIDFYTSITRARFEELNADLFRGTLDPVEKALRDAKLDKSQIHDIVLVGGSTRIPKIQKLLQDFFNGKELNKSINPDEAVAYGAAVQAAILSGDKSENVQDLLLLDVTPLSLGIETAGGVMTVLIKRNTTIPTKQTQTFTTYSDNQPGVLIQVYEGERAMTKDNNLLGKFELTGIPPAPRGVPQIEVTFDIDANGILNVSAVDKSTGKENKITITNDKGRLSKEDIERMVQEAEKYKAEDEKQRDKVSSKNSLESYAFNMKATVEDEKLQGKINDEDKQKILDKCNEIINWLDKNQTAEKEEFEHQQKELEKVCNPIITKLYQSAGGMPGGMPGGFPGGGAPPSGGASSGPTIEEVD
With T53A, the “effect of a mutation on the interaction” value is recorded as “with no effect”.

In another test the parent is B4. The following applies: with SIAH1, Q8IUQ4-2.
For L107V, the “effect of a mutation on the interaction” value is “with no effect”.

The variants in another test derive from B5. As to conditions: with dvl3_human DVL3, Q92997.
On to S408N, for which the “effect of a mutation on the interaction” value is “disrupting interaction strength”.

In another test the parent is B6. The following applies: with stf1_human NR5A1, Q13285.
Chain of stf1_human NR5A1, Q13285 (Q13285 whole entry): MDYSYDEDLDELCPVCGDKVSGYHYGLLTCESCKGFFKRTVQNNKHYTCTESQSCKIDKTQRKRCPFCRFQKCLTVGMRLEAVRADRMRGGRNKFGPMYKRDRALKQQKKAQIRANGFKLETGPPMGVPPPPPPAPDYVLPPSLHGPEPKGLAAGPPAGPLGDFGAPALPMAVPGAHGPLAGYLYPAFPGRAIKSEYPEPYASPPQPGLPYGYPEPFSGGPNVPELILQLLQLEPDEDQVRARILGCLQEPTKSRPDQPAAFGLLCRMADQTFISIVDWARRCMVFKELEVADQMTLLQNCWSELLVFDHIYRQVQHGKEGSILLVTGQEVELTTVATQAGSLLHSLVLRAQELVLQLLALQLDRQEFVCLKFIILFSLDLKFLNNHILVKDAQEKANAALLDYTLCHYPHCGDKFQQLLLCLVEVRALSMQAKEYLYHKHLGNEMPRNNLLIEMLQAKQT
For W105C, the “effect of a mutation on the interaction” value was “with no effect”.

The next test covers variants of B7. As to conditions: with traf2_human TRAF2, Q12933.
H806D: the “effect of a mutation on the interaction” value was “with no effect”. Take P256L: the “effect of a mutation on the interaction” value is recorded as “with no effect”. Still for that read-out and setting: with Q248E the entry was “with no effect”. The same measure, in the same setting: with G244E the entry was “with no effect”; with I678V, “with no effect”.

The next test covers variants of B8. As to conditions: with magd1_human MAGED1, Q9Y5V3.
Take S100P: the “effect of a mutation on the interaction” value is recorded as “disrupting interaction strength”.
